We go through two molecules from patent US8409583B2, “Engineered versions of CgtB (β-1,3 galactosyltransferase) enzymes, with enhanced enzymatic properties” (National Research Council of Canada, priority 2007, dated 2013).

What all share (format): biochemical
The nature of data set [1]: CgtB activity assay (capillary electrophoresis), acceptor lyso-GM2-FCHASE. The conditions noted are these: lysoGM2-FCHASE at 0.5 mM; reference (100%) GM2-FCHASE for CgtBOH4384 and CgtB11168, GA2-FCHASE for CgtBHS:10; average of three experiments. As to the method: (§1) The oligosaccharide acceptors and the interferon alpha 2b (IFNα2b) peptide (VGVTETP, corresponding to positions 103-109 of the mature IFNα2b protein) were labeled with FCHASE as previously described (Wakarchuk, W. et al., J Biol. Chem. 271:19166-19173 (1996)). IFNα2b-FCHASE was purified by reverse-phase chromatography using a PRP-1 column (10×250 mm, Hamilton Company, Reno, Nev.) in 10 mM ammonium acetate pH 5.5 with a gradient of acetonitrile (0-100% over 4 column volumes). CgtB activity assays were done in cell lysates or using purified enzyme in 50 mM MES pH 6.0, 0.5 mM of FCHASE-acceptor (unless otherwise indicated), 10 mM MnCl2, 10 mM DTT, 1 mM UDP-Gal at 37° C. from 5 to 30 minutes. All reactions were stopped by addition of 10 μL of 50% acetonitrile, 10 mM EDTA and 1% SDS and were diluted with H2O to obtain 10-15 μM final concentration of the FCHASE-labeled compounds. The samples were analyzed by capillary electrophoresis as described previously (Wakarchuk, W. W. et al., Methods Mol. Biol. 213:263-274 (2003)) except that a P/ACE MDQ Capillary Electrophoresis System equipped with a Laser module 488 (Beckman Coulter, Calif.) was used. Quantitation of the reactions was performed by integration of the trace peaks using the MDQ 32 Karat software.

A short description of data set [2]: CgtB activity assay (capillary electrophoresis), acceptor GalNAcβ-FCHASE. The conditions noted are these: for Relative activity (%): GalNAcβ-FCHASE at 0.5 mM, reference (100%) GM2-FCHASE for CgtBOH4384 and CgtB11168, GA2-FCHASE for CgtBHS:10, average of three experiments; for Specific Activity (mU/mg) on a given FCHASE-labeled acceptor: purified enzyme, 3 mM GalNAcβ-FCHASE. As to the method:
as §1, with “CgtB activity assays were done in cell lysates or using purified enzyme in 50 mM MES pH 6.0, 0.5 mM of FCHASE-acceptor (unless otherwise indicated), 10 mM MnCl2, 10 mM DTT, 1 mM UDP-Gal at 37° C. from 5 to 30 minutes.” left out

Data set [3] can be described thus: CgtB activity assay (capillary electrophoresis), acceptor GM2-FCHASE. To be noted: for Relative activity (%): GM2-FCHASE at 0.5 mM, reference (100%) GM2-FCHASE for CgtBOH4384 and CgtB11168, GA2-FCHASE for CgtBHS:10, average of three experiments; for Specific Activity (mU/mg) on a given FCHASE-labeled acceptor: purified enzyme, 1 mM GM2-FCHASE. As to the method:
as §1

Data set [4] is described as follows: CgtB activity assay (capillary electrophoresis), acceptor GA2-FCHASE. To be noted: GA2-FCHASE at 0.5 mM; reference (100%) GM2-FCHASE for CgtBOH4384 and CgtB11168, GA2-FCHASE for CgtBHS:10; average of two experiments. As to the method: as §1
Data set [5] is described as follows: CgtB activity assay (capillary electrophoresis), acceptor GalNAcα-FCHASE. The conditions noted are these: for Relative activity (%): GalNAcα-FCHASE at 0.5 mM, reference (100%) GM2-FCHASE for CgtBOH4384 and CgtB11168, GA2-FCHASE for CgtBHS:10, average of two experiments; for Specific Activity (mU/mg) on a given FCHASE-labeled acceptor: purified enzyme, 3 mM GalNAcα-FCHASE. As to the method: as §1, with “CgtB activity assays were done in cell lysates or using purified enzyme in 50 mM MES pH 6.0, 0.5 mM of FCHASE-acceptor (unless otherwise indicated), 10 mM MnCl2, 10 mM DTT, 1 mM UDP-Gal at 37° C. from 5 to 30 minutes.” left out

The next data set concerns IFNα2b[Tn]-FCHASE. Briefly: CgtB activity assay (capillary electrophoresis), glycopeptide acceptor IFNα2b[Tn]-FCHASE. To be noted: purified enzyme; 1 mM IFNα2b[Tn]-FCHASE. As to the method: as §1
The IFNα2b protein was purchased from Cell Sciences (Canton, Mass.). […]

B1: CJL-20: Full length CgtB from C. jejuni NCTC 11168 fused to MalE at the N-terminus (protein)
chain: MSQISIILPTYNVEKYIARALESCINQTFKDIEIIVVDDCGNDKSIDIAKEYASKDDRIKIIHNEENLKLLRARYEGAKVATSPYIMFLDSDDYLELNACEECIKILDMGGGGKIDLLCFEAFITNAKKSIKKLNIKQGKYNNKEFTMQILKTKNPFWTMWAKIIKKDIYLKAFNMLNLKKEIKINMAEDALLYYPLTILSNEIFYLTQPLYTQHVNSNSITNNINSLEANIQEHKIVLNVLKSIKNKKTPLYFLIIYLLKIQLLKYEQNFNKRNINLIYYKINILYQKYQFKWKKFLYNLIP
modifications: left off: large carriers
notes: Full length CgtB from C. jejuni NCTC 11168 fused to MalE at the N-terminus
B1: the “Relative activity (%)” value is listed as 606.2^4% in data set [1]; 50.5^4% in data set [2]; 100^4% in data set [3]; 8.8^3% in data set [4]; 3.0^3% in data set [5]. The “Specific Activity (mU/mg) on a given FCHASE-labeled acceptor” value came out at 40.4 mU/mg in data set [2], 27 mU/mg in data set [3] and 13.6 mU/mg in data set [5].

B2: CJL-10: Full length CgtB β-1,3-galactosyltransferase from C. jejuni OH4384 fused to E. coli MalE (maltose binding protein) at the N-terminus (protein)
chain: MFKISIILPTYNVEQYIARAIESCINQTFKDIEIIVVDDCGNDNSINIAKEYSKKDKRIKIIHNEKNLGLLRARYEGVKVANSPYIMFLDPDDYLELNACEECIKILDEQDEVDLVFFNAIVESNVISYKKFDFNSGFYSKKEFVKKIIAKKNLYWTMWGKLIRKKLYLEAFASLRLEKDVKINMAEDVLLYYPMLSQAQKIAYMNCNLYHYVPNNNSICNTKNEVLVKNNIQELQLVLNYLRQNYILNKYCSVLYVLIKYLLYIQIYKIKRTKLMVTLLAKINILTLKILFKYKKFLKQC
modifications: left off: large carriers
For B2, the “Specific Activity (mU/mg) on a given FCHASE-labeled acceptor” value with IFNα2b[Tn]-FCHASE is 83.5 mU/mg; in data set [2], 192 mU/mg; in data set [3] it was 210 mU/mg; in data set [5], 158^1 mU/mg. Besides, the “Relative activity (%)” value in data set [1] was 444^4%; in data set [2], 47.5^4%; in data set [3], 100^4%; in data set [4] it was 29^3%; in data set [5], 6.4^3%.
